From publication PMC4976356, “Structural insight into β-Clamp and its interaction with DNA Ligase in Helicobacter pylori” (Scientific Reports, 2016) come the findings set out here.

Data set [1] concerns the molecule itself. Description: SEC; gel filtration on HiLoad G200 16/60; 30 mM Tris pH 7.5, 150 mM NaCl, 5% glycerol, 30 mM arginine, 6 mM βMe.
The target in data set [2] is T1, NAD-dependent DNA ligase from Helicobacter pylori 26695 (Helicobacter pylori 26695, UniProt O25336 1-656).
T1 construct: Cloned and expressed in a similar manner to the β-clamp (NcoI/XhoI, pET 28(b)); by the printed forward primer Met-Gly would stand before Met1, and the reverse primer has no stop codon, so a C-terminal vector His tag is likely (surmised); also called HpDNA ligase; Hpligase; source: E. coli BL21, purified (Ni Sepharose, HiLoad G200 gel filtration)
The settings on record: both partners purified.

B1: β-clamp from Helicobacter pylori 26695 (natural protein, UniProt O25242 1-374, looked up)
chain: MKISVSKNDLENALRYLQAFLDKKDASSIASHIHLEVIKEKLFLKASDSDIGLKSYIFTQSSDKEGVGTINGKKFLDIISCLKDSNIILETKDDSLAIKQNKSSFKLPMFDADEFPEFPVIDPKVSIEVNAPFLVDAFKKIAPVIEQTSHKRELAGILMQFDQKHQTLSVVGTDTKRLSYTQLEKISIHSTEEDISCILPKRALLEILKLFYENFSFKSDGMLAVIENEMHTFFTKLIDGNYPDYQKILPKEYISSFTLGKEEFKESIKLCSSLSSTIKLTLEKNNALFESLDSEHSETAKTSVEIEKGLDIEKAFHLGVNAKFFLEALNALGTTQFVLRCNEPSSPFLIQESLDEKQSHLNAKISTLMMPITL
notes: DNA polymerase III beta subunit (β-clamp) of Helicobacter pylori 26695; domains I-III span Met1 to Leu374; Cloned between NcoI and XhoI of pET 28(b); the reverse primer has no stop codon, so a C-terminal vector His tag is likely (surmised); By the printed forward primer the ATG of the NcoI site is out of frame with the gene's own ATG; also called Hpβ-clamp; H. pylori β-clamp; source: E. coli …
For the molecule B1, the “stoichiometry N” value in data set [1] turned out to be 2. Further, the Kd in data set [2] was determined as 1250 nM.
